Earlier results on 1 substance are cited in publication PMC3113340.

The series deals with IL-1ra (Homo sapiens) (UniProt P18510).
Sequence of UniProt P18510 (P18510 26-177): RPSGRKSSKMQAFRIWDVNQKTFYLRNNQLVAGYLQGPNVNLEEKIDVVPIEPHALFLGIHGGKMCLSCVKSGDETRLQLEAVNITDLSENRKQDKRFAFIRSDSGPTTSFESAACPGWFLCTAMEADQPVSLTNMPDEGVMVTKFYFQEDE

Regarding “soluble IL-1RI ECD (from UniProt P14778)”, the Kd (as a rule, the constant that tells how readily two partners part at equilibrium) was 0.014 nM.
